According to the supplement of paper PMC9112550, “Optimization of the antimicrobial peptide Bac7 by deep mutational scanning” (BMC Biology, 2022):

Each sequence was assayed on Escherichia coli TOP10 (assay: shrunken log2 fold change of peptide-encoding DNA abundance (4.5 h post-induction vs induction); higher = less antimicrobial activity (less host growth inhibition)). Conditions: time post-induction: 4.5 h; library: site-saturation at positions 5, 18, 19, 20.
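Also: peptides expressed intracellularly from a pBAD plasmid library in pooled LB shake-flask culture, induced with 0.3% L-arabinose, DNA abundance read by NGS, three biological replicates, DESeq2 with apeglm shrinkage.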

| Sequence | shrunken log2 fold change |
| --- | --- |
| RRIRVRPPRLPRPRPRPKHRPRP | 0.356 |
| RRIRVRPPRLPRPRPRPKIQPRP | -0.0896 |
| RRIRVRPPRLPRPRPRPKKLPRP | -0.0765 |
| RRIRVRPPRLPRPRPRPKLCPRP | -0.0766 |
| RRIRVRPPRLPRPRPRPKLEPRP | 0.09 |
| RRIRVRPPRLPRPRPRPKLHPRP | -0.237 |
| RRIRVRPPRLPRPRPRPKNQPRP | -0.173 |
| RRIRVRPPRLPRPRPRPKPPPRP | 0.318 |
| RRIRVRPPRLPRPRPRPKPTPRP | 0.707 |
| RRIRVRPPRLPRPRPRPKRLPRP | 0.132 |
| RRIRVRPPRLPRPRPRPKRSPRP | 0.112 |
| RRIRVRPPRLPRPRPRPKRVPRP | 0.0344 |
| RRIRVRPPRLPRPRPRPKSMPRP | -0.362 |
| RRIRVRPPRLPRPRPRPKSPPRP | 0.272 |
| RRIRVRPPRLPRPRPRPKSRPRP | 0.0366 |
| RRIRVRPPRLPRPRPRPKTCPRP | 0.021 |
| RRIRVRPPRLPRPRPRPKTQPRP | 0.0766 |
| RRIRVRPPRLPRPRPRPKVPPRP | -0.00247 |
| RRIRVRPPRLPRPRPRPKWDPRP | 0.0182 |
| RRIRVRPPRLPRPRPRPKWMPRP | -0.0468 |
| RRIRVRPPRLPRPRPRPKWYPRP | -0.194 |
| RRIRVRPPRLPRPRPRPKYLPRP | -0.308 |
| RRIRVRPPRLPRPRPRPKYPPRP | -0.188 |
| RRIRVRPPRLPRPRPRPLACPRP | 0.214 |
| RRIRVRPPRLPRPRPRPLARPRP | 0.0756 |

| Sequence | shrunken log2 fold change |
| --- | --- |
| RRIRVRPPRLPRPRPRPLCEPRP | -0.131 |
| RRIRVRPPRLPRPRPRPLDNPRP | -0.0763 |
| RRIRVRPPRLPRPRPRPLDPPRP | -0.258 |
| RRIRVRPPRLPRPRPRPLETPRP | -0.062 |
| RRIRVRPPRLPRPRPRPLFEPRP | 0.109 |
| RRIRVRPPRLPRPRPRPLFKPRP | -0.262 |
| RRIRVRPPRLPRPRPRPLFYPRP | -0.22 |
| RRIRVRPPRLPRPRPRPLGHPRP | 0.0376 |
| RRIRVRPPRLPRPRPRPLGPPRP | 0.342 |
| RRIRVRPPRLPRPRPRPLHYPRP | -0.088 |
| RRIRVRPPRLPRPRPRPLIDPRP | 0.119 |
| RRIRVRPPRLPRPRPRPLIPPRP | -0.406 |
| RRIRVRPPRLPRPRPRPLIQPRP | -0.351 |
| RRIRVRPPRLPRPRPRPLKRPRP | 0.0621 |
| RRIRVRPPRLPRPRPRPLKVPRP | -0.136 |
| RRIRVRPPRLPRPRPRPLLFPRP | -0.141 |
| RRIRVRPPRLPRPRPRPLNQPRP | -0.0183 |
| RRIRVRPPRLPRPRPRPLQYPRP | 1.72 |
| RRIRVRPPRLPRPRPRPLSDPRP | 0.0263 |
| RRIRVRPPRLPRPRPRPLSYPRP | -0.18 |
| RRIRVRPPRLPRPRPRPLVFPRP | -0.00523 |
| RRIRVRPPRLPRPRPRPLWCPRP | -0.303 |
| RRIRVRPPRLPRPRPRPLYCPRP | -0.596 |
| RRIRVRPPRLPRPRPRPMAAPRP | 0.287 |
| RRIRVRPPRLPRPRPRPMANPRP | 0.146 |

| Sequence | shrunken log2 fold change |
| --- | --- |
| RRIRVRPPRLPRPRPRPMASPRP | -0.01 |
| RRIRVRPPRLPRPRPRPMCHPRP | -0.0674 |
| RRIRVRPPRLPRPRPRPMDIPRP | -0.308 |
| RRIRVRPPRLPRPRPRPMDRPRP | -0.308 |
| RRIRVRPPRLPRPRPRPMDVPRP | 0.0265 |
| RRIRVRPPRLPRPRPRPMEHPRP | 0.0534 |
| RRIRVRPPRLPRPRPRPMFVPRP | 0.00262 |
| RRIRVRPPRLPRPRPRPMGFPRP | 0.034 |
| RRIRVRPPRLPRPRPRPMHFPRP | -0.409 |
| RRIRVRPPRLPRPRPRPMIRPRP | -0.147 |
| RRIRVRPPRLPRPRPRPMKDPRP | -0.109 |
| RRIRVRPPRLPRPRPRPMKHPRP | -0.525 |
| RRIRVRPPRLPRPRPRPMKKPRP | 0.0174 |
| RRIRVRPPRLPRPRPRPMLFPRP | -0.329 |
| RRIRVRPPRLPRPRPRPMNMPRP | -0.426 |
| RRIRVRPPRLPRPRPRPMNTPRP | -0.312 |
| RRIRVRPPRLPRPRPRPMPQPRP | 0.311 |
| RRIRVRPPRLPRPRPRPMPTPRP | 0.282 |
| RRIRVRPPRLPRPRPRPMQMPRP | -0.0841 |
| RRIRVRPPRLPRPRPRPMRCPRP | 0.204 |
| RRIRVRPPRLPRPRPRPMREPRP | 0.689 |
| RRIRVRPPRLPRPRPRPMRQPRP | 0.0326 |
| RRIRVRPPRLPRPRPRPMRTPRP | -0.0139 |
| RRIRVRPPRLPRPRPRPMSPPRP | 0.0872 |
| RRIRVRPPRLPRPRPRPMVEPRP | 0.303 |
